Assay results as given in paper PMC12709241.
Like-named read-outs stand apart in the source and are kept apart here.

Experiments:
[1] = molecular target: microtubules (assembled from porcine brain tubulin, rhodamine-labeled, paclitaxel-stabilised) (porcine) (UniProt P02550); test: optical trapping
[2] = molecular target: microtubules (assembled from porcine brain tubulin, rhodamine-labeled, paclitaxel-stabilised) (porcine) (UniProt P02550); test: optical trapping; remark: listed apart in the source

mean detachment force (single molecule) [1]: 6.4 pN
mean detachment force (single molecule) [2]: 6.3 pN
Substance: KinΔC (mouse KIF5B 1-888 heavy chain with bound full-length KLC2) (from UniProt Q61768 1-888; O88448 1-599) (complex)
